Each block holds one binder with its values, some of them ahead of it.
Molecular target: full-length His-PCAF fusion protein (human, UniProt Q92831 1-832)
Assay: pull-down

Sequence of full-length His-PCAF fusion protein (Q92831 whole entry, the tested form may be a part): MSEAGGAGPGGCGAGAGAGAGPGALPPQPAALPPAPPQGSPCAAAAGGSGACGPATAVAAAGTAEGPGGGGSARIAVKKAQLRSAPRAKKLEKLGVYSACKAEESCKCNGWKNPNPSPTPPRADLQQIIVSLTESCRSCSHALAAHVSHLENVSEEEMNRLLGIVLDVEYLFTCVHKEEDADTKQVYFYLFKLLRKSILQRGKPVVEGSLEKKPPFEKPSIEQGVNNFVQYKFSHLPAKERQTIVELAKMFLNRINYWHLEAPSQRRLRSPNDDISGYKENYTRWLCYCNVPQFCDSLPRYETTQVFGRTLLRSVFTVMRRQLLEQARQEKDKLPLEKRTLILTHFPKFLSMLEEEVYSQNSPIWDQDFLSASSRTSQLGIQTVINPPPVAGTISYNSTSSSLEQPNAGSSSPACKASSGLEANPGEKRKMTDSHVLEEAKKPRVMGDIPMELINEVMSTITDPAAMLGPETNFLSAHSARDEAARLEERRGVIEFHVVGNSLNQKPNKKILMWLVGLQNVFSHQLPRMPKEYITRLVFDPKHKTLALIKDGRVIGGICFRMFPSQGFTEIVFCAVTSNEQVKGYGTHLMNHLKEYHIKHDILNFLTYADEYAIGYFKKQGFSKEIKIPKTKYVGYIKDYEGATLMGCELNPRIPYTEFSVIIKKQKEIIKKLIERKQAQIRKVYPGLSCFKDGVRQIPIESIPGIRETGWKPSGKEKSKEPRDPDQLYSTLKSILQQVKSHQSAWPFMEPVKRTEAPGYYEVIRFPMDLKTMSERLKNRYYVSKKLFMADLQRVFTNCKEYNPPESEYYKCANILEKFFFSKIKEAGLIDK

binding result: binds
B1: GST-EZH2 SET domain (610-746) (domain or fragment)
chain: not shown

binding result: binds
B2: GST-EZH2 N-terminal domain (1-522) (domain or fragment)
chain: MGQTGKKSEKGPVCWRKRVKSEYMRLRQLKRFRRADEVKSMFSSNRQKILERTEILNQEWKQRRIQPVHILTSVSSLRGTRECSVTSDLDFPTQVIPLKTLNAVASVPIMYSWSPLQQNFMVEDETVLHNIPYMGDEVLDQDGTFIEELIKNYDGKVHGDRECGFINDEIFVELVNALGQYNDDDDDDDGDDPEEREEKQKDLEDHRDDKESRPPRKFPSDKIFEAISSMFPDKGTAEELKEKYKELTEQQLPGALPPECTPNIDGPNAKSVQREQSLHSFHTLFCRRCFKYDCFLHPFHATPNTYKRKNTETALDNKPCGPQCYQHLEGAKEFAAALTAERIKTPPKRPGGRRRGRLPNNSSRPSTPTINVLESKDTDSDREAGTETGGENNDKEEEEKKDETSSSSEANSRCQTPIKMKPNIEPPENVEWSGAEASMFRVLIGTYYDNFCAIARLIGTKTCRQVYEFRVKESSIIAPAPAEDVDTPPRKKKRKHRLWAAHCRKIQLKKDGSSNHVYNYQP

— paper PMC4402543 (Nucleic Acids Research, 2015)
